Residue numbers refer to the chain shown, from its start. Ends that are not written are not given here.
Experiments:
human α-CGRP 1-13-COOH = biological target: T1, human α-CGRP 1-13-COOH (human, ends and bridges not checked); test: Biacore competition: 50 nM G1 Fab with 10 µM peptide over human α-CGRP on chip
T1 peptide: ACDTATCVTHRLA-OH

human α-CGRP 1-19-COOH = biological target: T2, human α-CGRP 1-19-COOH (human, ends and bridges not checked); test: as above
T2 peptide: ACDTATCVTHRLAGLLSRS-OH

human α-CGRP 1-37 (WT) [1] = biological target: T3, human α-CGRP 1-37 (WT) (human, C-terminal amide; N-terminal biotin when captured on the SA chip; 125I-labelled in the radioligand assay); test: Biacore, 37°C, high-resolution two-part experiment
T3 construct: also called α-human
T3 peptide: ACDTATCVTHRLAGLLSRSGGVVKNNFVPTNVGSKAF
Procedure: (§1) Biacore assay for affinity determination. […] All Biacore assays were conducted in HBS-EP running buffer (10 mM HEPES pH 7.4, 150 mM NaCl, 3 mM EDTA, 0.005% v/v polysorbate P20). CGRP surfaces were prepared by diluting the N-biotinylated CGRP to a concentration of less than 0.001 mg/mL into HBS-EP buffer and injecting it across the SA sensor chip using variable contact times. […] Samples were typically injected for 1 minute at 100 μL/min and dissociation times of at least 10 minutes were allowed. […] An entire titration series (typically generated in duplicate) was fit globally to a 1:1 Langmuir binding model using the BIAevaluation program. This returned a unique pair of association and dissociation kinetic rate constants (respectively, kₒₙ and koff) for each binding interaction, whose ratio gave the equilibrium dissociation constant (KD=koff/kₒₙ).
(§2) High-resolution analysis of binding interactions with extremely slow off rates. […] The protocol described above was used with the following modifications.

[2] = biological target: T4, Human adrenomedullin (1-52) (human, C-terminal amide); test: Biacore competition: 50 nM G1 Fab with 10 µM peptide over human α-CGRP on chip
T4 peptide: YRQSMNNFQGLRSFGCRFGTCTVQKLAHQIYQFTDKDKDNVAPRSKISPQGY
Excerpt: (§3) Y axis represents percentage of binding blocked by the presence of the competing peptide compared with the binding in the absence of the competing peptide.
(§4) All these peptides are amidated at the C-terminus.

Human amylin (1-37) = biological target: T5, Human amylin (1-37) (human, C-terminal amide); test: as above
T5 peptide: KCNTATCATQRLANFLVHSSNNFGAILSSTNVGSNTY
Excerpt: as §3, §4

Human calcitonin (1-32) = biological target: T6, Human calcitonin (1-32) (human, C-terminal amide); test: as above
T6 peptide: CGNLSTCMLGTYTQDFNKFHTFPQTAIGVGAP
Excerpt: as §3, §4

human α-CGRP 19-36 = biological target: T7, human α-CGRP 19-36 (human); test: as above
T7 construct: also called 19-36-COOH; peptide fragment 19-36
T7 peptide: SGGVVKNNFVPTNVGSKA-OH
Excerpt: as §3, §4

human β-CGRP (1-37) = biological target: T8, human β-CGRP (1-37) (human, C-terminal amide; N-terminal biotin when captured on the SA chip); test: Biacore, 37°C, Fab over N-biotinylated CGRP on SA chip, 20-min dissociation
T8 construct: also called human β (1-37)
T8 peptide: T3 peptide with D3N, V22M, N25S
Procedure: as §1

rat β-CGRP (1-37) = biological target: T9, rat β-CGRP (1-37) (rat, C-terminal amide; N-terminal biotin when captured on the SA chip); test: as above
T9 construct: also called rat β (1-37)
T9 peptide: T3 peptide with A1S, D3N, N25D
Procedure: as §1

rat α-CGRP (1-37) [3] = biological target: T10, rat α-CGRP (1-37) (rat, C-terminal amide; N-terminal biotin when captured on the SA chip); test: Biacore, 37°C, Fab over N-biotinylated CGRP on SA chip, high-resolution two-part experiment
T10 construct: also called rat α (1-37); α-rat
T10 peptide: T3 peptide with A1S, D3N, N25D, K35E
Procedure: as §1, §2

human α-CGRP 1-37 (WT) [4] = biological target: T3, human α-CGRP 1-37 (WT); test: as above
Procedure: as §1, §2

rat α-CGRP (1-37) [5] = biological target: T10, rat α-CGRP (1-37); test: Biacore, 37°C, Fab over CGRP on SA chip
Procedure, shortened: (§5)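 Fab analyte flowed over N-biotinylated CGRP captured at low density on a streptavidin chip in HBS-EP (pH 7.4), 1-min injections at 100 μL/min, at least 10 min dissociation.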

human α-CGRP 1-37 (WT) [6] = biological target: T3, human α-CGRP 1-37 (WT); test: Biacore, 37°C, Fab over CGRP on SA chip
Procedure, shortened: as §5

B1: antibody G1 Fab fragment (Fab, V domains shown)
VH: EVQLVESGGGLVQPGGSLRLSCAASGFTFSNYWISWVRQAPGKGLEWVAEIRSESDASATHYAEAVKGRFTISRDNAKNSLYLQMNSLRAEDTAVYYCLAYFDYGLAIQNYWGQGTLVTVSS
VL: EIVLTQSPATLSLSPGERATLSCKASKRVTTYVSWYQQKPGQAPRLLIYGASNRYLGIPARFSGSGSGTDFTLTISSLEPEDFAVYYCSQSYNYPYTFGQGTKLEIK
- binding result (human α-CGRP 1-13-COOH): no binding (tested: 10 µM peptide)
- binding result (human α-CGRP 1-19-COOH): no binding (tested: 10 µM peptide)
- Kd (human α-CGRP 1-37 (WT) [1]): 0.06 nM
- binding result [2]: no binding (tested: 10 µM peptide)
- binding result (Human amylin (1-37)): no binding (tested: 10 µM peptide)
- binding result (Human calcitonin (1-32)): no binding (tested: 10 µM peptide)
- binding result (human α-CGRP 19-36): no binding (tested: 10 µM peptide)
- Kd (human β-CGRP (1-37)): 0.155 nM
- Kd (rat β-CGRP (1-37)): 0.152 nM
- Kd (rat α-CGRP (1-37) [3]): 2.57 nM
- Kd (human α-CGRP 1-37 (WT) [4]): 0.063 nM
- Kd (rat α-CGRP (1-37) [5]): 2.57 nM
- Kd (human α-CGRP 1-37 (WT) [6]): 0.063 nM
